According to patent US20260069707A1, “COMBINATION THERAPY WITH ANTIBODY-DRUG CONJUGATES AND HYALURONIDASES” (HALOZYME, INC., priority 2024, published 2026):
Read-outs that look alike come from different tables or passages of the source. Marks after values point to notes of the source that are not given here.

Tests used:
[1] = Histological analysis (H&E) of post-injection tissue samples; type: in vivo, Yucatan miniature pig (Sus scrofa domestica)
Excerpt: Following the assessment after day three, the animal was humanely euthanized using an injectable euthanasia drug provided by the vivarium staff. Following euthanasia full thickness punch biopsies of the injection site were taken (12 mm) and placed in 10% formalin. After obtaining the punch biopsies the animal carcass was removed and disposed of as biohazardous waste. Sections were made from tissue samples and assessed for histopathology using hematoxylin and eosin staining methods. Analyses were performed on each injection site (2 biopsies) and one untreated site. Three tissue depths were examined from each tissue section following level sectioning technique, representing the beginning, middle and end of each section.
After fixation the samples were processed and embedded into paraffin to make formalin fixed paraffin embedded (FFPE) tissues sections Each tissue section was evaluated at three different tissue depths (1-2-3; low-medium-high). In addition to tissue samples from the injection site, a sample was taken from naïve untreated tissue for comparison.
Each injection was one mL and was delivered using a pre-filled 1-cc syringe. After the last timepoint, the animal was humanely euthanized. After euthanasia, punch biopsies of each injection site were obtained and preserved in 10% formalin for histological analyses.
After fixation, the samples were processed and embedded into paraffin to make formalin fixed paraffin embedded (FFPE) tissues sections Each tissue section was evaluated at three different tissue depths (1-2-3; low-medium-high). In addition to tissue samples from the injection site, a sample was taken from two naïve untreated tissue sites for comparison. Tissue sections were prepared and stained with hematoxylin and eosin for pathohistological evaluation.
Method: After 72h, animals were euthanized and full-thickness punch biopsies taken (12 mm). FFPE sections were prepared from each injection site. Samples were evaluated at three different tissue depths. A sample of naïve skin was also included for comparison. Results: 1/3 tissue samples from ADC alone had multiple focal infiltrates in SC (all levels).

[2] = pig, in vivo
Method: Serum concentrations of total ADC, total antibody and Free Payload (unconjugated SN38) were determined in three separate assays conducted by PPD.
A 20.0-μL sample aliquot was diluted 10-fold. A portion of the diluted sample was taken and processed using an immunoaffinity approach. SMART Digest IA magnetic beads coated with anti-human Fc antibody were used to enrich Trodelvy from matrix. The bound proteins were subjected to “on-bead” proteolysis with trypsin. […] After trypsin digestion, the proteins were further subjected to acidic conditions to release SN-38 from the antibody, which was used for Total ADC quantitation. The following sequences in Table 49 were selected for monitoring in the assay:
VVSV was used for the quantitation of Total Antibody concentrations, DSTY was used for the quantitation of Intact Antibody (trouble shooting purposes only), and SN-38 was used for quantitating Total ADC concentrations.
A nominal unconjugated SN-38, concentration range of […] was chosen to quantitate samples. This assay requires a 50.0 μL porcine serum aliquot. Samples were kept frozen at −80° C. prior to analysis.
A matrix aliquot was fortified with internal standard. Analytes were isolated through protein precipitation. The eluate was evaporated under a nitrogen stream, and the remaining residue reconstituted. Final extracts were analyzed via HPLC MS/MS detection using positive ion electrospray.
Therefore, nominal time points were used for PK analyses. To estimate the serum concentration at time zero for intravenous (IV) data, a second-order polynomial regression was applied to the early serum time points (0.25, 1, and 2 hours). The intercept of the fitted polynomial curve was used as the extrapolated concentration at time zero. Skin concentration data (μg/mL) was normalized to total protein (mg/mL) per sample, resulting in values represented as μg/mg protein.
Pharmacokinetic parameters were calculated using noncompartmental methods performed in Microsoft Excel. The area under the concentration-time curve (AUC) was determined using the linear trapezoidal rule. For serum data, AUC0-7 was calculated using all available time points. For skin data, AUC1-7 was computed based on the three available time point measurements. The maximum observed concentration (Cmax) was identified directly from the dataset, and the time at which it occurred (Tmax) was recorded. All calculations were performed using Microsoft Excel.
Quantitation of total antibody, total ADC, and free payload (SN-38) from Trodelvy in porcine serum and tissue samples was performed via HPLC with MS/MS detection.

## Sacituzumab govitecan [Trodelvy]
[1]; Example 3: 1 mL SC, exposure times 4 hours or less
  Local skin tolerability: demonstrated local skin tolerability
[1]; pig, in vivo
  Tissue samples/injections with multiple focal (immune cell) infiltrates in SC: 1/3
[1]; pig, in vivo, sc
  Focal instances of [immune] cell infiltrates in the SC space: 2
  Necrosis: 0
  Pathohistological findings (H&E): no findings
[2]
  Relative difference in serum AUC0-7, Free Payload: 59%
  Relative difference in serum AUC0-7, TAB: 76%
  Relative difference in serum AUC0-7, TADC: 34%
  Relative difference in serum Cmax, Free Payload: 38%
  Relative difference in serum Cmax, TAB: 44%
  Relative difference in serum Cmax, TADC: 13%
[2]; 50 mg
  TADC/Free Payload, Tmax: 100%
  TADC/TAB, Tmax: 33%
[2]; iv
  AUC0-7 of free payload: 0.1252 µg·days/mL
  AUC0-7 of total ADC (TADC): 41.44 µg·days/mL
  AUC0-7 of total antibody (TAB): 193.05 µg·days/mL
  Cmax of free payload: 95.3 ng/mL
  Cmax of total ADC (TADC): 60550 ng/mL
  Cmax of total antibody (TAB): 57600 ng/mL
  Tmax of free payload: 0 h
  Tmax of total ADC (TADC): 0 h
  Tmax of total antibody (TAB): 0 h
[2]; iv, 50 mg, 6 h
  Total ADC Result: 43.9 µg/mL
[2]; iv, 50 mg, 24 h
  Total ADC Result: 10 µg/mL
[2]; iv, 50 mg, 48 h
  Total ADC Result: 2.27 µg/mL
[2]; iv, 50 mg, 72 h
  Total ADC Result: 0.751 µg/mL
[2]; iv, 50 mg, 96 h
  Total ADC Result: <0.500 µg/mL
[2]; iv, 50 mg, 168 h
  Total ADC Result: 0.1 µg/mL
[2]; iv, 6 h
  serum concentration of total ADC (TADC): 43.90 µg/mL
[2]; iv, 24 h
  serum concentration of total ADC (TADC): 10.00 µg/mL
[2]; iv, 48 h
  serum concentration of total ADC (TADC): 2.27 µg/mL
[2]; iv, 72 h
  serum concentration of total ADC (TADC): 0.75 µg/mL
[2]; iv, 96 h
  serum concentration of total ADC (TADC): <0.50^b μg/mL
[2]; iv, 168 h
  serum concentration of total ADC (TADC): 0.10 µg/mL
[2]; sc
  Tmax of free payload: 24 h
[2]; sc, 0 h
  serum concentration of total ADC (TADC): <0.10^b μg/mL
[2]; sc, 6 h
  serum concentration of total ADC (TADC): 4.96 µg/mL
[2]; sc, 24 h
  serum concentration of total ADC (TADC): 7.87 µg/mL
[2]; sc, 48 h
  serum concentration of total ADC (TADC): 2.77 µg/mL
[2]; sc, 72 h
  serum concentration of total ADC (TADC): 1.00 µg/mL
[2]; sc, 168 h
  serum concentration of total ADC (TADC): 0.13 µg/mL
